Changes are numbered by the printed parent chain.

The target in assay [1] is T1, human Cadherin-17 (CDH17), cell-surface, endogenous on human cancer cells (human, UniProt Q12864 23-832).
T1 construct: Endogenous CDH17 on LoVo, LS174T and SNU-1 cells and in human tumor tissue sections; also called liver-intestine cadherin; LI-cadherin
T1 sequence: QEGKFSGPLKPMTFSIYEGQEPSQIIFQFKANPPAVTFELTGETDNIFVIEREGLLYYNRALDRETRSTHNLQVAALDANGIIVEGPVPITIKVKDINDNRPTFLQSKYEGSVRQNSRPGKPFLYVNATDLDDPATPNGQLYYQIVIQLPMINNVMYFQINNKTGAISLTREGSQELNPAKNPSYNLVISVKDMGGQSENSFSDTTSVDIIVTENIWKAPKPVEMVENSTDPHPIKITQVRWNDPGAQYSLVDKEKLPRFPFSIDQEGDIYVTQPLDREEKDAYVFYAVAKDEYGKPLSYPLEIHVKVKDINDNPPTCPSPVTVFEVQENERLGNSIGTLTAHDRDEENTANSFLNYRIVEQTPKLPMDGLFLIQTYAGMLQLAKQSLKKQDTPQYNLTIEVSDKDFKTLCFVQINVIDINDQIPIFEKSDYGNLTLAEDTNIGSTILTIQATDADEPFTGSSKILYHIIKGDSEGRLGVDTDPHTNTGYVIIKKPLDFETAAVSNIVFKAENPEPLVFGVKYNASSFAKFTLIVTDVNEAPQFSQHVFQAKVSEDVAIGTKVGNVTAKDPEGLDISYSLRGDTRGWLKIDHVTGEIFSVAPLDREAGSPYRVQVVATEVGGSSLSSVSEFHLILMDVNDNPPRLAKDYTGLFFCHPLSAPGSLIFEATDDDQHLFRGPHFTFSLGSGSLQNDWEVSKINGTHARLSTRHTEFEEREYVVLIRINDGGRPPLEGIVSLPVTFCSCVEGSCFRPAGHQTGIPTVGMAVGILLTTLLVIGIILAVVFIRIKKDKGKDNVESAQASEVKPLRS
Description: flow cytometry on LoVo cells, antibody titration.

Assay [2] addresses T2, CDH17 human full length Flag tagged antigen, transfected into HEK293 cells (human, UniProt Q12864 23-832).
T2 construct: The Flag tag may sit at either end; also called Flag tagged Human CDH17; human CDH17; not shown: Flag tag
T2 sequence: T1 sequence
Description: flow cytometry on HEK293 cells transiently transfected with Flag tagged human CDH17; panel 'CDH17 Human Flag Tag analyzed with CDH17_A4_4K'. The protocol:
(§1) The humanized monoclonal antibodies, CDH17_A4_{—}4K and CDH17_A4_{—}4R were incubated with cells on ice for 1 hour and then washed twice with cold FACS buffer and re-suspended in 100 ul FACS buffer per well. A secondary antibody was added at 1 ug/ml along with goat anti-mouse H+L PE (Southern Biotech) for Anti-flag and mouse isotype control and goat anti-human H+L PE (Southern Biotech) for human isotype control. The plate was then incubated for 1 hour after which was washed three times with FACS buffer and re-suspended 150 ul FACS buffer per well. 50 ul of 4% paraformaldehyde was then added to fix the cells before storing the plate overnight at 4 degrees C. The sample were then run on Guava EasyCyte Flow Cytometer HT plus and the data analyzed using the Guava Cytosoft software suite.

Assay [3] has as its target T2, CDH17 human full length Flag tagged …. Description: flow cytometry on HEK293 cells transiently transfected with Flag tagged human CDH17; panel 'CDH17 Human Flag Tag analyzed with CDH17_A4_4R'. The protocol: as §1

B1: CDH17_A4 monoclonal antibody (Fab, V domains shown)
VH: EVQLQQSVAELVKPGASVKMSCKVSGYTLTDHTIHWMKQRPEQGLEWIGYIYPRDGITGYNEKFKGKATLTADTSSSTAYMQLNSLTSEDSAVYFCARWGYSYRNYAYYYDYWGQGTTLTVSS
VL: DIVMSQSPSSLAVSVGEKVTMSCKSSQSLLHSSNQKNYLAWYQQKPGQSPKVLIYWASTRESGVPDRFTGSGSGTDFTLTITSVKSEDLAVYYCQQYYSYPWTFGGGTRLEIK
notes: also called CHD17_A4
For the molecule B1, in assay [1], the binding result was “binds”.

B2: humanized CDH17_A4-4K monoclonal antibody (antibody, V domains shown)
VH: QVQLVQSGAEVKKPGASVKVSCKASGYTLTDHTIHWMRQAPGQRLEWIGYIYPRDGITGYNEKFKGKATLTADTSASTAYMELSSLRSEDTAVYYCARWGYSYRNYAYYYDYWGQGTLVTVSS
VL: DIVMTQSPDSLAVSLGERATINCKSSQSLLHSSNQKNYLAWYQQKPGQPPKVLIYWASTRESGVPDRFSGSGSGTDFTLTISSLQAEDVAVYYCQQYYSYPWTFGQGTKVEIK
notes: It was detected with an anti-human IgG secondary in the HumZAP assay
For the molecule B2, the half-maximal effective concentration (EC50) in assay [2] is 0.14 nM.

B3: humanized CDH17_A4-4R monoclonal antibody (antibody, V domains shown)
VH: B2 VH with K63R, K65R
VL: DIVMTQSPDSLAVSLGERATINCRSSQSLLHSSNQRNYLAWYQQKPGQPPKVLIYWASTRESGVPDRFSGSGSGTDFTLTISSLQAEDVAVYYCQQYYSYPWTFGQGTKVEIK
notes: as for B2
On to B3, for which, in assay [3], the half-maximal effective concentration (EC50) came to 0.13 nM.

Values taken from patent US20130259878A1 (OXFORD BIOTHERAPEUTICS, published 2013).
